{"source": "patent US20210032664", "about": "“ENGINEERED MEGANUCLEASES WITH RECOGNITION SEQUENCES FOUND IN THE HUMAN BETA-2 MICROGLOBULIN GENE” (Precision Biosciences, Inc., published 2021)", "binders": {"B1": {"name": "B2M 13-14 recognition sequence (dsDNA)", "DNA 1": "CTATCTCTTGTACTACACTGAA", "DNA 2": "TTCAGTGTAGTACAAGAGATAG"}}, "experiment_in_all_cases": "cell_activity; human T cells, 1 ug mRNA, day 3", "settings_in_all_cases": "tags: N-terminal SV40 NLS", "key": {"[1]": {"biological_target": "T1, B2M 13-14x.93 QQR66 (Artificial Sequence)", "T1 chain": "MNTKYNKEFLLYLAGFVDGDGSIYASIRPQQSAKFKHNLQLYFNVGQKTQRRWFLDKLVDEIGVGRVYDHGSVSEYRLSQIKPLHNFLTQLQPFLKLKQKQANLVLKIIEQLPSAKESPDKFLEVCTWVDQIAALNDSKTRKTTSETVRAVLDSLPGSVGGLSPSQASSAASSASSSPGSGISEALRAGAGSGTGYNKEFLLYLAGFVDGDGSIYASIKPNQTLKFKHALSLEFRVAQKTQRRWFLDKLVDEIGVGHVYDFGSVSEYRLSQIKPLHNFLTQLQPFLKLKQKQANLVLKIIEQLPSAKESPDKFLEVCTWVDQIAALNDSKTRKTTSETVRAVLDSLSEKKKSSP", "experimental": "(§1) To test these variants of B2M 13-14x.93, donor human T cells were stimulated with anti-CD3 and anti-CD28 antibodies for 3 days, then electroporated with mRNA encoding a given B2M 13-14 meganuclease (1 μg) using the Amaxa 4D-Nucleofector (Lonza) according to the manufacturer's instructions. At 3 days post-electroporation, cells were stained with an antibody recognizing β-2 microglobulin (BD Biosciences) and analyzed by flow cytometry."}, "[2]": {"biological_target": "T2, B2M 13-14x.93 EEK66 (Artificial Sequence)", "T2 chain": "T1 chain with R66K, Q80E, Q271E", "experimental": "as §1"}, "[3]": {"biological_target": "T3, B2M 13-14x.93 EQK66 (Artificial Sequence)", "T3 chain": "T1 chain with R66K, Q80E", "experimental": "as §1"}, "[4]": {"biological_target": "T4, B2M 13-14x.93 QE (Artificial Sequence)", "T4 chain": "T1 chain with R66Y, Q271E", "experimental": "as §1"}}, "note": "Changes are numbered by the printed parent chain. Numbers in names are those of the source."}
{"binder": "B1", "values": [{"measurement": "activity", "setting": "[1]", "value": 5.05, "unit": "% B2M-negative"}, {"measurement": "activity", "setting": "[2]", "value": 3.84, "unit": "% B2M-negative"}, {"measurement": "activity", "setting": "[3]", "value": 6.81, "unit": "% B2M-negative"}, {"measurement": "activity", "setting": "[4]", "value": 37, "unit": "% B2M-negative"}]}
